Data reported in IntAct's records for PubMed 23746845.

B1: Telomere length regulator protein RIF1 (Saccharomyces cerevisiae), P29539 (parent)
chain: MSKDFSDKKKHTIDRIDQHILRRSQHDNYSNGSSPWMKTNLPPPSPQAHMHIQSDLSPTPKRRKLASSSDCENKQFDLSAINKNLYPEDTGSRLMQSLPELSASNSDNVSPVTKSVAFSDRIESSPIYRIPGSSPKPSPSSKPGKSILRNRLPSVRTVSDLSYNKLQYTQHKLHNGNIFTSPYKETRVNPRALEYWVSGEIHGLVDNESVSEFKEIIEGGLGILRQESEDYVARRFEVYATFNNIIPILTTKNVNEVDQKFNILIVNIESIIEICIPHLQIAQDTLLSSSEKKNPFVIRLYVQIVRFFSAIMSNFKIVKWLTKRPDLVNKLKVIYRWTTGALRNENSNKIIITAQVSFLRDEKFGTFFLSNEEIKPIISTFTEIMEINSHNLIYEKLLLIRGFLSKYPKLMIETVTSWLPGEVLPRIIIGDEIYSMKILITSIVVLLELLKKCLDFVDEHERIYQCIMLSPVCETIPEKFLSKLPLNSYDSANLDKVTIGHLLTQQIKNYIVVKNDNKIAMDLWLSMTGLLYDSGKRVYDLTSESNKVWFDLNNLCFINNHPKTRLMSIKVWRIITYCICTKISQKNQEGNKSLLSLLRTPFQMTLPYVNDPSAREGIIYHLLGVVYTAFTSNKNLSTDMFELFWDHLITPIYEDYVFKYDSIHLQNVLFTVLHLLIGGKNADVALERKYKKHIHPMSVIASEGVKLKDISSLPPQIIKREYDKIMKVVFQAVEVAISNVNLAHDLILTSLKHLPEDRKDQTHLESFSSLILKVTQNNKDTPIFRDFFGAVTSSFVYTFLDLFLRKNDSSLVNFNIQISKVGISQGNMTLDLLKDVIRKARNETSEFLIIEKFLELDDKKTEVYAQNWVGSTLLPPNISFREFQSLANIVNKVPNENSIENFLDLCLKLSFPVNLFTLLHVSMWSNNNFIYFIQSYVSKNENKLNVDLITLLKTSLPGNPELFSGLLPFLRRNKFMDILEYCIHSNPNLLNSIPDLNSDLLLKLLPRSRASYFAANIKLFKCSEQLTLVRWLLKGQQLEQLNQNFSEIENVLQNASDSELEKSEIIRELLHLAMANPIEPLFSGLLNFCIKNNMADHLDEFCGNMTSEVLFKISPELLLKLLTYKEKPNGKLLAAVIEKIENGDDDYILELLEKIIIQKEIQILEKLKEPLLVFFLNPVSSNMQKHKKSTNMLRELVLLYLTKPLSRSAAKKFFSMLISILPPNPNYQTIDMVNLLIDLIKSHNRKFKDKRTYNATLKTIGKWIQESGVVHQGDSSKEIEAIPDTKSMYIPCEGSENKLSNLQRKVDSQDIQVPATQGMKEPPSSIQISSQISAKDSDSISLKNTAIMNSSQQESHANRSRSIDDETLEEVDNESIREIDQQMKSTQLDKNVANHSNICSTKSDEVDVTELHESIDTQSSEVNAYQPIEVLTSELKAVTNRSIKTNPDHNVVNSDNPLKRPSKETPTSENKRSKGHETMVDVLVSEEQAVSPSSDVICTNIKSIANEESSLALRNSIKVETNCNENSLNVTLDLDQQTITKEDGKGQVEHVQRQENQESMNKINSKSFTQDNIAQYKSVKKARPNNEGENNDYACNVEQASPVRNEVPGDGIQIPSGTILLNSSKQTEKSKVDDLRSDEDEHGTVAQEKHQVGAINSRNKNNDRMDSTPIQGTEEESREVVMTEEGINVRLEDSGTCELNKNLKGPLKGDKDANINDDFVPVEENVRDEGFLKSMEHAVSKETGLEEQPEVADISVLPEIRIPIFNSLKMQGSKSQIKEKLKKRLQRNELMPPDSPPRMTENTNINAQNGLDTVPKTIGGKEKHHEIQLGQAHTEADGEPLLGGDGNEDATSREATPSLKVHFFSKKSRRLVARLRGFTPGDLNGISVEERRNLRIELLDFMMRLEYYSNRDNDMN
partner: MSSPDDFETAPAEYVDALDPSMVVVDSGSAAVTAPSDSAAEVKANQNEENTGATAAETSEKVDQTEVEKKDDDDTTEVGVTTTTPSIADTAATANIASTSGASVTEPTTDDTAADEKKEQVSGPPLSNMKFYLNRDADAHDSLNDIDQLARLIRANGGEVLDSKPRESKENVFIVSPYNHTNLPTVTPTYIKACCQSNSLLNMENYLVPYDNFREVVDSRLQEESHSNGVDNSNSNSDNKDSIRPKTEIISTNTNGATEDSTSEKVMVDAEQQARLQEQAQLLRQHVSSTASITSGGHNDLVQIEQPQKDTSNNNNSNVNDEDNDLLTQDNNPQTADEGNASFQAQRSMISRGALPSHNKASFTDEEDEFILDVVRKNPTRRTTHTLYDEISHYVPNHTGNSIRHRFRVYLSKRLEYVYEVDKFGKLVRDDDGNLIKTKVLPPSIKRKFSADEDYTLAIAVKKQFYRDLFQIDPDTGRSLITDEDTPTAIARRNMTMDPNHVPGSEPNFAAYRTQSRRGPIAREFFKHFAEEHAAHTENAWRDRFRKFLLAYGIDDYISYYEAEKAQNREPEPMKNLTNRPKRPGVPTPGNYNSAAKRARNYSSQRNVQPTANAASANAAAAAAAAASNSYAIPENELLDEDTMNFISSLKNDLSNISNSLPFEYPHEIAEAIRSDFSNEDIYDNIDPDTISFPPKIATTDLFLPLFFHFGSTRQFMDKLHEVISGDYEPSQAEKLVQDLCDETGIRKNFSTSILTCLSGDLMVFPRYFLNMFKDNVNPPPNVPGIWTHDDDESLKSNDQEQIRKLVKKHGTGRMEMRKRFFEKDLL
B2: DNA-binding protein RAP1 (Saccharomyces cerevisiae), P11938 (parent)
chain: B1 partner

Variants of: B1
Conditions: with rap1_yeast RAP1, P11938

Row | effect of a mutation on the interaction | Variant
1 | disrupting interaction strength | I1762R
2 | decreasing interaction strength | R1895E
3 | disrupting interaction strength | I1764R
4 | disrupting interaction strength | I1760R
5 | disrupting interaction strength | L1905R

Variants of: B1
Conditions: with rap1_yeast RAP1, P11938
Remark: another data set of the same source

Row | effect of a mutation on the interaction | Variant
6 | decreasing interaction strength | L1905R

Variants of: B2
Conditions: with rif1_yeast RIF1, P29539

Row | effect of a mutation on the interaction | Variant
7 | disrupting interaction strength | A733R
8 | disrupting interaction strength | G760R
